# US20150086557A1, “NOVEL INTEGRIN alpha9 beta1 LIGAND AND USES THEREOF” (OSAKA UNIVERSITY, priority 2012, published 2015)
# Where no end group is shown, it is not given here.
# Experiments:
# integrin α9β1 = molecular target: T1, integrin α9β1 (Homo sapiens, UniProt P05556+Q13797); assay: Direct integrin binding assay with recombinant integrin α9β1; details: for binding of recombinant integrin α9β1 to coated protein: 1 mM MnCl2, FIG. 7; for binding of integrin α9β1 to smaller segments of D2628-S2664: 1 mM MnCl2, FIG. 13
# T1 construct: A cDNA encoding the extracellular region of human integrin α9; An expression vector for the extracellular region of integrin β1; ACID coiled-coil (Velcro) peptide; FLAG; BASE coiled-coil (Velcro) peptide; made in house; host or cells: FreeStyle 293 Expression System (293-F cells)
# T1 sequence (Q13797 30-981 limits assumed): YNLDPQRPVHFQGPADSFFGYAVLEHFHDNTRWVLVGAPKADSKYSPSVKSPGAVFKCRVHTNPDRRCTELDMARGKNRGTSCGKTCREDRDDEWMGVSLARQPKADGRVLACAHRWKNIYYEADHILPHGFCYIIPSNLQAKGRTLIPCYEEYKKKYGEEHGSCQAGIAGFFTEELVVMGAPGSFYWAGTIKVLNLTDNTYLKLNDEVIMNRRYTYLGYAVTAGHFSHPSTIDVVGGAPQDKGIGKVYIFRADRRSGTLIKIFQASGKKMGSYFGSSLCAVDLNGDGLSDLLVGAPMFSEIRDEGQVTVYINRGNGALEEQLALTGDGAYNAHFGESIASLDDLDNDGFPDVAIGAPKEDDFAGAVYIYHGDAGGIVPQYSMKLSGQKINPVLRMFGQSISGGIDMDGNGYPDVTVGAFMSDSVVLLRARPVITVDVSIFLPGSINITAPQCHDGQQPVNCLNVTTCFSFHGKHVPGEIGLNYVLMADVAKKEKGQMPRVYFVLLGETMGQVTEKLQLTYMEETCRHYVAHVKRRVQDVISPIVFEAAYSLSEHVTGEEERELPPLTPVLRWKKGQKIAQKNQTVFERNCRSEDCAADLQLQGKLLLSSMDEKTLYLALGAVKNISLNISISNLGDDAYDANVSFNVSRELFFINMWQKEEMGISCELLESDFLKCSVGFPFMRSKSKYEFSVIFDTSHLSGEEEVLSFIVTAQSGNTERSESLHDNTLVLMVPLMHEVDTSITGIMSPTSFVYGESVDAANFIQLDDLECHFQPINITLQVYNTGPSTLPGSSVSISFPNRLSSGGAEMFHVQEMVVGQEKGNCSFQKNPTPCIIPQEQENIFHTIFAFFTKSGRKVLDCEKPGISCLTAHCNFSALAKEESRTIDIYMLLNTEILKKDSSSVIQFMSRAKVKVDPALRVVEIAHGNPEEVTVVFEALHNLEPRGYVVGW
# T1 sequence (P05556 21-728 limits assumed): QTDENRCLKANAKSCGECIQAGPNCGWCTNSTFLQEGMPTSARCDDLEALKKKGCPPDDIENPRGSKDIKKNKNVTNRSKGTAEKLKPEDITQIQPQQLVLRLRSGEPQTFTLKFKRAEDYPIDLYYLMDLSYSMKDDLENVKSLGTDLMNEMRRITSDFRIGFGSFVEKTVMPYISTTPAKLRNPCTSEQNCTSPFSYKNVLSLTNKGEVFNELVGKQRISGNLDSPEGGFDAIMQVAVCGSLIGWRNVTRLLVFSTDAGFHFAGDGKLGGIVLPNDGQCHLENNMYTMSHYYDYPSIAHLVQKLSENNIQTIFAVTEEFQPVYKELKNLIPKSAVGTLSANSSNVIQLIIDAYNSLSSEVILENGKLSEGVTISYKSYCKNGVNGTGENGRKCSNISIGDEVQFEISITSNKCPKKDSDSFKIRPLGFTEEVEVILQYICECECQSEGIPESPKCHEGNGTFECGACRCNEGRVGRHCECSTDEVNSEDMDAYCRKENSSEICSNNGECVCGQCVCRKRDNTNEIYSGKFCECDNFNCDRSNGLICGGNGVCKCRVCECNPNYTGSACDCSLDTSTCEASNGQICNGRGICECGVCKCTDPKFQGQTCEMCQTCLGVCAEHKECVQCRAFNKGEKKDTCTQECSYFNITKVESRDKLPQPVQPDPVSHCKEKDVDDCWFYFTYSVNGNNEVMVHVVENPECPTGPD
# From the text: A cDNA encoding the extracellular region of human integrin α9 was amplified by RT-PCR from total RNA extracted from RD cells and cloned into pBluescript KS(+). After verification of the nucleotide sequence, an error-free cDNA fragment was inserted into pcDNA-ACID-FLAG (Nishiuchi, R., Takagi, J., Hayashi, M., Ido, H., Yagi, Y., Sanzen, N., Tsuji, T., Yamada, M., and Sekiguchi, K. (2006) Matrix Biol. 25, 189-197). An expression vector for the extracellular region of integrin β1 was provided by Dr. Junichi Takagi (Takagi, J., Erickson, H. P., and Springer, T. A. (2001) Nat. Struct. Biol. 8, 412-416). The recombinant integrins were produced using the Freestyle™ 293 Expression System (Invitrogen) and purified as described in the above-mentioned publication Matrix Biol. 25, 189-197, (2006).
# An integrin binding assay was performed as described in the above-mentioned publication Matrix Biol. 25, […], (2006). In some experiments, integrins were preincubated with synthetic peptides at various concentrations to evaluate the inhibitory activities of the synthetic peptides. The apparent dissociation constants were determined as described in Nishiuchi, R., Murayama, O., Fujiwara, H., Gu, J., Kawakami. T., Aimoto, S., Wada, Y., and Sekiguchi, K. (2003) J. Biochem, 134, 497-504.
# To corroborate the role of integrin α9β1 as an adhesion receptor for polydom, a direct integrin binding assay was performed, using recombinant integrin α9β1. Plates were coated with full-length polydom, pol-N, pol-C, plasma fibronectin (pFN) or cellular fibronectin (cFN), and recombinant integrin α9β1 was added and allowed to bind thereto in the presence of 1 mM MnCl2 or 10 mM EDTA. BSA was used as a negative control. The bound integrin was quantified using a biotinylated anti-Velcro antibody and HRP-conjugated streptavidin.
# Integrin α9β1 is known to bind to the third fibronectin type III domain of tenascin-C (TNfn3) and the osteopontin N-terminal half (OPN-Nhalf). These integrin α9β1 ligands were recombinantly expressed as GST fusion proteins and then purified. In the GST fusion proteins, the RGD cell-adhesive motifs were replaced with RAA to nullify their abilities to interact with RGD-binding integrins, such as those containing the αv subunit, Microtiter plates were coated with pol-C (10 nM), GST-TNfn3-RAA (100 nM) or GST-OPN-Nhalf-RAA (100 nM), and integrin α9β1 was added and allowed to bind thereto in the presence of 1 mM MnCl2.
# To locate the integrin α9β1-binding site within polydom, a series of five N-terminal deletion mutants of polydom (pol-C, ΔEGF6, ΔPTX, ΔCCP20 and ΔCCP21; see FIG. 9) were constructed. Their binding activities for integrin α9β1 were evaluated in the presence of 1 mM MnCl2 or 10 mM EDTA using microtiter plates coated with these recombinant proteins (10 nM).
# Among the 34 CCP domains within polydom, CCP21 is unique because it contains about 40 extra amino acids as compared with the other CCP domains. An assay to examine whether this extra region (hereinafter referred to as “extra segment”) within CCP21 is involved in binding to integrin α9β1 was performed, Microtiter plates were coated with a GST-CCP21 fusion protein, a D2628-S2664 deletion mutant of the GST-CCP21 fusion protein (CCP21ΔD2628-S2664), D2628-S2664 alone (see FIG. 11), pol-C or GST alone, and integrin α9β1 was added and allowed to bind thereto in the presence of 1 mM MnCl2 or 10 mM EDTA.
# To further narrow down the region responsible for binding to integrin α9β1, the extra 37-amino acid segment of CCP21 was divided into smaller segments, of which GST fusion proteins were produced. Microtiter plates were coated with eight kinds of segments including CCP21, pol-C and GST alone, and integrin α9β1 was added and allowed to bind thereto in the presence of 1 mM MnCl2 or 10 mM EDTA.
# To identify the residues involved in binding to Integrin α9β1, alanine scanning mutants and N-terminal or C-terminal deletion mutants of D2634-L2645 were produced as GST fusion proteins. […]
# RD cells = assay: Cell adhesion assay on coated plates (RD cells); format: cell-based, human; details: for promotion of RD cell adhesion: coated 96-well plates, 37° C. for 30 minutes
# Procedure: A cell adhesion assay was performed as described in Sato, Y. , Uemura, T., Morimitsu, K., Sato-Nishiuchi, R., Manabe, R., Takagi, J., Yamada, M., and Sekiguchi, K. (2009) J. Biol. Chem. 284, 14524-14536. For an assay involving blocking antibodies, RD cells (human rhabdomyosarcoma cells) were preincubated with monoclonal antibodies of interest at room temperature for 15 minutes and plated on 96-well plates coated with recombinant polydom proteins or fibronectin. The cells were incubated for 30 minutes, washed, fixed with 3.7% formaldehyde, and stained with 0.5% toluidine blue.
# The cells were plated on 96-well plates coated with serial diluted concentrations of full-length polydom, pol-N, pol-C or plasma fibronectin (FN) and incubated at 37° C. for 30 minutes. After washing out unattached cells, attached cells were fixed and stained with toluidine blue. The attached cells were counted under a microscope. The assay was performed in triplicate.
# hematopoietic stem cells = assay: Proliferation of hematopoietic stem cells on coated plates; format: cell-based, mouse; details: peptide 50 μM for 2 hours, then polydom-coated plate, FIG. 20
# Procedure: Bone marrow cells were flushed out from the femurs and tibias of three mice of 6 to 7 weeks of age (C57BL/6J) and dissociated with a 22G needle. The cells were reacted with a biotin-labeled anti-lineage antibody for 30 minutes and subsequently with an anti-blotin antibody-conjugated magnetic beads, and lineage-positive cells were removed by automated magnetic cell sorter autoMACS (Miltenyi Biotec). After staining with PE-CD3, PE-Mac1, PE-Gr1, PE-Ter119, PE-B220, FTTC-Sca1 and APC-c-Kit, a lineage(−) Sca1(+) c-Kit (high) cell fraction was sorted out using FACSAria and used for the experiments described below.
# The above-prepared cells were plated on a 48-well plate coated with a recombinant polydom protein or fibronectin. The same type of plate without coating was used as a control. The medium used was RPMI containing 10% fetal calf serum, thrombopoietin (30 ng/ml) and flt3 ligand (100 ng/ml). For the examination of cell proliferation, the cells were plated in duplicate wells for each coating at 1000 cells/well and started to be cultured, and the cell number was counted at the start of culture, and on day 2 and day 3. The remaining cells were divided into three aliquots, plated in wells for each coating, and subjected to FACS analysis on day 3 after the start of culture. For the FACS analysis, staining with an antibody cocktail containing PE-CD3, PE-Mac1, PE-Gr1, PE-Ter119, PE-B220, FITC-Sca1 and APC-c-Kit was performed and FACSCont was used.
# The above-prepared cells were divided into three groups and plated on 48-well plates at 5000 cells/well. The medium used was RPMI containing 10% fetal calf serum, thrombopoietin (30 ng/ml) and flt3 ligand (100 ng/ml). For an EDDMMEVPY peptide treatment group, 2 μl of the peptide was added to each well at the final concentration of 50 μM, and for the other two groups, 2 μl of PBS was added to each well. Then, the culture was performed at […] for 2 hours. Subsequently, the cells were transferred to 48-well plates coated with a recombinant polydom protein or fibronectin. The cells cultured in the presence of the peptide were transferred to the recombinant polydom protein-coated plate, and the cells in one of the other two groups were transferred to the recombinant polydom protein-coated plate, and the cells in the remaining group were transferred to the fibronectin-coated plate. The culture was continued for 3 days and the cell numbers were counted on day 2, day 3 and […].
# [1] = molecular target: recombinant integrin α9β1 (human, UniProt Q13797 30-981; P05556 21-728); assay: inhibition of integrin α9β1 (10 nM) binding to coated pol-C (10 nM) by synthetic peptide, 1 mM MnCl2, 10% DMSO
# Chain of recombinant integrin α9β1 (Q13797 30-981, chain 1 of 2): as the sequence (Q13797 30-981 limits assumed) above
# Chain of recombinant integrin α9β1 (P05556 21-728, chain 2 of 2): as the sequence (P05556 21-728 limits assumed) above
# Procedure: To further corroborate the role of […] as the integrin α9β1 recognition sequence, an integrin α9β1-pol-C binding inhibition assay was performed using synthetic peptides consisting of the […] sequence or a part of the sequence, Integrin α9β1 (10 nM) was incubated on microtiter plates coated with pol-C (10 nM) in the presence of 1 mM MnCl₂ and various concentrations of the synthetic peptides. To prevent precipitation of the peptides, the assay was performed in the presence of 10% DMSO. Based on the amount of integrin α9β1 bound to pol-C set as 100%, the relative binding amount was calculated.
molecule,measurement,setting,value
"D2628-S2664: extra 37-amino acid segment of CCP21, GST fusion (DGQGHFDQEDDMMEVPYLAHPQHLEATAKALENTKES; also: GST fusion)",binding to integrin α9β1 (extra segment of CCP21),"integrin α9β1; GST fusion proteins, 1 mM MnCl2, FIG. 12",retained the binding activity
"E2641A: alanine substitution of Glu2641 in D2634-L2645, GST fusion protein (DQEDDMMAVPYL; also: GST fusion protein)",integrin binding activity of alanine scanning mutants of D2634-L2645,"integrin α9β1; GST fusion proteins, FIG. 14",almost completely abrogated the integrin binding activity
"pol-C: C-terminal fragment of polydom, residues 1192 to 3567 of SEQ ID NO: 2, C-terminal His tag",binding of recombinant integrin α9β1 to coated protein,integrin α9β1,bound
same,Kd,"integrin α9β1; pol-C coated at 10 nM, 1 mM MnCl2, three independent determinations, read-out: dissociation constant between integrin α9β1 and ligand",32.4 ± 2.7 nM
same,cell adhesion potency compared with full-length polydom,RD cells; FIG. 4,almost equivalent to that of full-length polydom
same,promotion of RD cell adhesion,RD cells; FIG. 4,capable of promoting cell adhesion
same,morphology of attached RD cells,"RD cells; microscopic observation, FIG. 5",exhibited spread morphology
"D2634-L2645: 12-amino acid segment in the extra segment of CCP21, GST fusion protein (DQEDDMMEVPYL; also: GST fusion protein)",binding of integrin α9β1 to smaller segments of D2628-S2664,integrin α9β1; GST fusion proteins,bound
"D2628-L2645: segment in the N-terminal region of D2628-S2664, GST fusion protein (DGQGHFDQEDDMMEVPYL; also: GST fusion protein)",binding of integrin α9β1 to smaller segments of D2628-S2664,integrin α9β1; GST fusion proteins,bound
EDDMMEVPY [EDDMMEVPY],proliferation of hematopoietic stem cells on polydom-coated plate after peptide treatment,hematopoietic stem cells; listed as EDDMMEVPY peptide,proliferate albeit more slowly than the cells on the fibronectin-coated plate
same,proliferation of hematopoietic stem cells on polydom-coated plate after peptide treatment,hematopoietic stem cells; listed as peptide consisting of the amino acid sequence represented by SEQ ID NO: 1,canceled
"pol-N: N-terminal fragment of polydom, residues 18 to 789 of SEQ ID NO: 2, C-terminal His tag (protein, listed as Mus musculus, C-terminal His tag) WTNFQPVAPSLNFSFRLFPEASPGALGRLAVPPASSEEEAAGSKVERLGRAFRSRVRRLRELSGSLELVFLVDESSSVGQTNFLNELKFVRKLLSDFPVVSTATRVAIVTFSSKNNVVARVDYISTSRAHQHKCALLSREIPAITYRGGGTYTKGAFQQAAQILRHSRENSTKVIFLITDGYSNGGDPRPIAASLRDFGVEIFTFGIWQGNIRELNDMASTPKEEHCYLLHSFEEFEALARRALHEDLPSGSFIQEDMARCSYLCEAGKDCCDRMASCKCGTHTGQFECICEKGYYGKGLQHECTACPSGTYKPEASPGGISTCIPCPDVSHTSPPGSTSPEDCVCREGYQRSGQTCEVVHCPALKPPENGFFIQNTCKNHFNAACGVRCRPGFDLVGSSIHLCQPNGLWSGTESFCRVRTCPHLRQPKHGHISCSTAEMSYNTLCLVTCNEGYRLEGSTRLTCQGNAQWDGPEPRCVERHCATFQKPKGVIISPPSCGKQPARPGMTCQLSCRQGYILSGVREVRCATSGKWSAKVQTAVCKDVEAPQISCPNDIEAKTGEQQDSANVTWQVPTAKDNSGEKVSVHVHPAFTPPYLFPIGDVAITYTATDSSGNQASCTFYIKVIDVEPPVIDWCRSPPPIQVVEKEHPASWDEPQFSDNSGAELVITSSHTQGDMFPHGETVVWYTATDPSGNNRTCDIHIVIKGSPCEVPFTPVNGDFICAQDSAGVNCSLSCKEGYDFTEGSTEKYYCAFEDGIWRPPYSTEWPDCAI",binding of recombinant integrin α9β1 to coated protein,integrin α9β1,not
same,promotion of RD cell adhesion,RD cells; FIG. 4,only pol-C was capable
"AEIDGIEL [AEIDGIEL peptide (integrin α9β1 recognition sequence in tenascin-C, synthetic)]",IC50,[1],7.8 µM
EDDMMEVPY (Corresponds to Glu2636-Tyr2644 of mouse SVEP1) [EDDMMEVPY peptide (synthetic)],IC50,[1],0.18 µM
